From patent publication US20240209065A1 (SINGLOMICS BEIJING DANXU BIOPHARMACEUTICALS, published 2024)

Columns and labels:
Assay in all cases: cell-based or functional assay
[1] = target: S protein of authentic SARS-CoV-2 Omicron BA.1 virus (SARS-CoV-2, UniProt P0DTC2 14-1273)
[2] = target: S protein of authentic SARS-CoV-2 Omicron BA.5 virus (SARS-CoV-2, UniProt P0DTC2 14-1273)
[3] = target: S protein of authentic SARS-CoV-2 Omicron BA.2 virus (SARS-CoV-2, UniProt P0DTC2 14-1273)
[4] = target: S protein (SΔ19) of Omicron BQ.1.1 pseudovirus (SARS-CoV-2, UniProt P0DTC2 14-1254)
[5] = target: S protein (SΔ19) of Omicron BQ.1 pseudovirus (SARS-CoV-2, UniProt P0DTC2 14-1254)

Binder | IC50, microneutralization assay with authentic virus [1] | fold increase of neutralization activity over parental IgG, authentic virus [1] | IC50, microneutralization assay with authentic virus [2] | fold increase of neutralization activity over parental IgG, authentic virus [2] | IC50, microneutralization assay with authentic virus [3] | fold increase of neutralization activity over parental IgG, authentic virus [3] | IC50, pseudovirus assay (HIV platform) [4] | fold increase of neutralizing activity compared to IgG, pseudovirus [4] | IC50, pseudovirus assay (HIV platform) [5] | fold increase of neutralizing activity compared to IgG, pseudovirus [5] | fold more potent in neutralizing than IgG, authentic virus [2]
DXP-604 monomeric IgA1 (antibody) heavy: not shown light: DIQLTQSPSFLSASVGDRVTITCRASQGISSDLAWYQQKPGKAPNLLIYAASTLQSGVPSRFSGSGSGTEFTLTISSLQPEDFATYYCQQLNSDLYTFGQGTKLEIKRTVAAPSVFIFPPSDEQLKSGTASVVCLLNNFYPREAKVQWKVDNALQSGNSQESVTEQDSKDSTYSLSSTLTLSKADYEKHKVYACEVTHQGLSSPVTKSFNRGEC | 3.43 nM | 6.7 fold | 0.35 nM | 35.5 fold | 0.16 nM | 17 fold | – | – | – | – | –
DXP-604 secretory IgA1 (antibody) heavy: not shown light: DIQLTQSPSFLSASVGDRVTITCRASQGISSDLAWYQQKPGKAPNLLIYAASTLQSGVPSRFSGSGSGTEFTLTISSLQPEDFATYYCQQLNSDLYTFGQGTKLEIKRTVAAPSVFIFPPSDEQLKSGTASVVCLLNNFYPREAKVQWKVDNALQSGNSQESVTEQDSKDSTYSLSSTLTLSKADYEKHKVYACEVTHQGLSSPVTKSFNRGEC chain 1: not shown chain 2: not shown | 0.44 nM | – | 0.09 nM | – | 0.03 nM | – | 1.59 nM | 5.5 fold | 1.41 nM | 6 fold | –
DXP-604 dimeric IgA1 (antibody) heavy: not shown light: DIQLTQSPSFLSASVGDRVTITCRASQGISSDLAWYQQKPGKAPNLLIYAASTLQSGVPSRFSGSGSGTEFTLTISSLQPEDFATYYCQQLNSDLYTFGQGTKLEIKRTVAAPSVFIFPPSDEQLKSGTASVVCLLNNFYPREAKVQWKVDNALQSGNSQESVTEQDSKDSTYSLSSTLTLSKADYEKHKVYACEVTHQGLSSPVTKSFNRGEC not shown | 0.38 nM | – | 0.13 nM | – | 0.06 nM | – | 4.88 nM | 1.8 fold | 3.2 nM | 2.6 fold | 92 fold
